Assay results reported in PMC4518479, “Rad51 Paralogs Remodel Pre-synaptic Rad51 Filaments to Stimulate Homologous Recombination” (Cell, 2015).
Changes are numbered by the printed parent chain.

Columns and labels:
RFS-1/RIP-1 [1] = target: T1, RFS-1/RIP-1 (Caenorhabditis elegans, UniProt P34348;Q21621 1-245;1-209); experiment: EMSA; weak binding; nucleotide independent; EMSA: 20 mM triethanolamine-HCl pH 7.5, 8% glycerol, 1 mM DTT, 50 mM sodium acetate, 2 mM MgCl2 + 2 mM nucleotide (or 10 mM EDTA), 100 nM (nt) DNA, 25 °C; conditions: protein: recombinant; copies: 1;1; label: 5'-32P or 5'-fluorescein
T1 sequence 1: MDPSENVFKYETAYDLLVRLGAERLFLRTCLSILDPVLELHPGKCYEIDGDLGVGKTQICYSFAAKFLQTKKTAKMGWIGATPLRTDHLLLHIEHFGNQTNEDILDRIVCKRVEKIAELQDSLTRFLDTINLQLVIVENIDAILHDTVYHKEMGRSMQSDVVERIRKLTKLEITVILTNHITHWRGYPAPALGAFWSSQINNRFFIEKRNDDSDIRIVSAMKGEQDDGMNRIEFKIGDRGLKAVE
T1 sequence 2: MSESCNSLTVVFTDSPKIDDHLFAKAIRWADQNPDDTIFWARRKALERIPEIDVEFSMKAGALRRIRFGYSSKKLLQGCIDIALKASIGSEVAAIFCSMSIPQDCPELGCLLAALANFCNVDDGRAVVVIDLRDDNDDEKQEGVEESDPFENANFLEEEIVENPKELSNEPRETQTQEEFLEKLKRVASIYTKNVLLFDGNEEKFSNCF

[2] = target: T2, RAD-51;RFS-1(E138A)/RIP-1 (Caenorhabditis elegans;Caenorhabditis …, UniProt Q7K7I8;P34348;Q21621 1-357;1-245;1-209, |E138A); experiment: EMSA; ATP; filament binding similar to wild type; EMSA: 20 mM triethanolamine-HCl pH 7.5, 8% glycerol, 1 mM DTT, 50 mM sodium acetate, 2 mM MgCl2 + 2 mM nucleotide (or 10 mM EDTA), 100 nM (nt) DNA, 25 °C; conditions: protein: recombinant;recombinant; tags: none (His-SUMO tag cleaved);3xFLAG at RIP-1 C-terminus; label: 5'-32P or 5'-fluorescein
T2 sequence 1: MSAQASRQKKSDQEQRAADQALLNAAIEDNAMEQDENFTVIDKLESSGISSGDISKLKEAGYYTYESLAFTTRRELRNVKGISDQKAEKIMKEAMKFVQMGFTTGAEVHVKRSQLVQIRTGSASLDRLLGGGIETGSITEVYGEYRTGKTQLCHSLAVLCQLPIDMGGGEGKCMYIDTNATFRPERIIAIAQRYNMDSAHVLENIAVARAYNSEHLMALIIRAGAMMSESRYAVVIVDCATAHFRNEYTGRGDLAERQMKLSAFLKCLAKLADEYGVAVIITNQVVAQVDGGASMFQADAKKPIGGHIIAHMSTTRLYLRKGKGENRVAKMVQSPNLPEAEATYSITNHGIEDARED
T2 sequence 2: T1 sequence 1 with E138A
T2 sequence 3: T1 sequence 2

RAD-51;RFS-1(K56A)/RIP-1 = target: T3, RAD-51;RFS-1(K56A)/RIP-1 (Caenorhabditis elegans;Caenorhabditis …, UniProt Q7K7I8;P34348;Q21621 1-357;1-245;1-209, |K56A); experiment: as above; conditions: protein: recombinant;recombinant; tags: none (His-SUMO tag cleaved);3xFLAG at RIP-1 C-terminus; label: 5'-32P or 5'-fluorescein
T3 sequence 1: T2 sequence 1
T3 sequence 2: T1 sequence 1 with K56A
T3 sequence 3: T1 sequence 2

RFS-1(K56A)/RIP-1 = target: T4, RFS-1(K56A)/RIP-1 (Caenorhabditis elegans, UniProt P34348;Q21621 1-245;1-209, K56A); experiment: EMSA; increased ssDNA affinity relative to wild type; EMSA: 20 mM triethanolamine-HCl pH 7.5, 8% glycerol, 1 mM DTT, 50 mM sodium acetate, 2 mM MgCl2 + 2 mM nucleotide (or 10 mM EDTA), 100 nM (nt) DNA, 25 °C; conditions: protein: recombinant; tags: 3xFLAG at RIP-1 C-terminus; copies: 1;1; label: 5'-32P or 5'-fluorescein
T4 sequence 1: T1 sequence 1 with K56A
T4 sequence 2: T1 sequence 2

RFS-1(E138A)/RIP-1 = target: T5, RFS-1(E138A)/RIP-1 (Caenorhabditis elegans, UniProt P34348;Q21621 1-245;1-209, E138A); experiment: as above; conditions: protein: recombinant; tags: 3xFLAG at RIP-1 C-terminus; copies: 1;1; label: 5'-32P or 5'-fluorescein
T5 sequence 1: T1 sequence 1 with E138A
T5 sequence 2: T1 sequence 2

RAD-51;RFS-1/RIP-1 = target: T6, RAD-51;RFS-1/RIP-1 (Caenorhabditis elegans;Caenorhabditis …, UniProt Q7K7I8;P34348;Q21621 1-357;1-245;1-209, |); experiment: EMSA with anti-FLAG immuno-shift; ATP; RFS-1/RIP-1 bound to RAD-51 filament; EMSA: 20 mM triethanolamine-HCl pH 7.5, 8% glycerol, 1 mM DTT, 50 mM sodium acetate, 2 mM MgCl2 + 2 mM nucleotide (or 10 mM EDTA), 100 nM (nt) DNA, 25 °C; conditions: protein: recombinant;recombinant; label: 5'-32P or 5'-fluorescein
T6 sequence 1: T2 sequence 1
T6 sequence 2: T1 sequence 1
T6 sequence 3: T1 sequence 2

RFS-1/RIP-1 [3] = target: T1, RFS-1/RIP-1; experiment: EMSA; EMSA: 20 mM triethanolamine-HCl pH 7.5, 8% glycerol, 1 mM DTT, 50 mM sodium acetate, 2 mM MgCl2 + 2 mM nucleotide (or 10 mM EDTA), 100 nM (nt) DNA, 25 °C; conditions: protein: recombinant; copies: 1;1; label: 5'-32P; blunt
[4] = target: T7, FLAG-tagged RIP-1 co-expressed with RFS-1 in budding yeast (C. elegans, UniProt Q21621 1-209); experiment: SEC; 3 ml Superdex 75 5/150 GL column loaded with 30 ul RFS-1/RIP-1 from single-step FLAG immunoprecipitation; size from molecular weight markers; conditions: both partners purified
T7 construct: RIP-1 of C. elegans (R01H10.5); also called RIP-1-FLAG; source: budding yeast, co-expressed with RFS-1, in extract; purified by FLAG immunoprecipitation; not shown: FLAG, C-terminal, kept
T7 sequence (looked up): T1 sequence 2

B1: 60-mer ssDNA (ssDNA)
DNA: ACGCTGCCGAATTCTACCAGTGCCTTGCTAGGACATCTTTGCCCACCTGCAGGTTCACCC
Q: Does B1 bind (RFS-1/RIP-1 [1])?
A: Result: binds

Q: Does B1 bind [2]?
A: Result: binds

Q: Does B1 bind (RAD-51;RFS-1(K56A)/RIP-1)?
A: Result: binds

Q: Does B1 bind (RFS-1(K56A)/RIP-1)?
A: Result: binds

Q: Does B1 bind (RFS-1(E138A)/RIP-1)?
A: Result: binds

Q: Does B1 bind (RAD-51;RFS-1/RIP-1)?
A: Result: binds

B2: 60-mer dsDNA (dsDNA)
DNA 1: B1 DNA
DNA 2: GGGTGAACCTGCAGGTGGGCAAAGATGTCCTAGCAAGGCACTGGTAGAATTCGGCAGCGT
Q: Does B2 bind (RFS-1/RIP-1 [3])?
A: Result: no binding

B3: RFS-1 co-expressed with RIP-1 in budding yeast (natural protein, C. elegans, UniProt P34348 1-245, looked up)
chain: T1 sequence 1
notes: RFS-1 of C. elegans; see Supplemental Experimental Procedures; also called recombinant RFS-1; source: budding yeast, co-expressed with RIP-1, in extract; co-purified by FLAG immunoprecipitation
Q: For B3, which “stoichiometry N” value [4] is on record?
A: The value was 1.
